Target: T1, wild-type Gαi1 subunit (human, UniProt P63096 1-354)
T1 construct: Gαi1, human, wild type; the α chain of m4; source: Sf9 or Hi5 insect cells, co-expressed with Gβ1 and Gγ2, purified as heterotrimer (TALON, SEC)
Experiment: cryo-EM structure; purified ET-1-bound ETBR mixed with 1.2 molar excess of wild-type or dominant negative Gi1 heterotrimer (20-24 °C, 2 h), apyrase and λ-phosphatase, then 1.2 molar excess of scFv16; complex purified on 2A5 anti-ETBR resin and by SEC in LMNG/CHS/GDN with 0.1 μM ET-1; single-particle cryo-EM
Details: both partners purified

T1 sequence (P63096 whole entry): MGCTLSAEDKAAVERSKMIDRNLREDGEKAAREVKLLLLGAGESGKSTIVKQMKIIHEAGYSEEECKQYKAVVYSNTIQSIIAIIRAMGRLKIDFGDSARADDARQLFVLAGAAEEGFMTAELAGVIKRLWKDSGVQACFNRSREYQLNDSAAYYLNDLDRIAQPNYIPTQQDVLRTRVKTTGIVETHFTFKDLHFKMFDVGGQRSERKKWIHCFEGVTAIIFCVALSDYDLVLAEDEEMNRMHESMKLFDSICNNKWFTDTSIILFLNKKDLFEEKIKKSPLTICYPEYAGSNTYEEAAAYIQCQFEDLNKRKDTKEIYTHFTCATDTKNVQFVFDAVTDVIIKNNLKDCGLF

B1: endothelin type B receptor, thermostabilized construct used for cryo-EM (R124Y, C396A, C400A, C405A, L66-S407 after 3C cleavage) (receptor, human, UniProt P24530 66-407, looked up)
chain: LAPAEVPKGDRTAGSPPRTISPPPCQGPIEIKETFKYINTVVSCLVFVLGIIGNSTLLYIIYKNKCMRNGPNILIASLALGDLLHIVIDIPINVYKLLAEDWPFGAEMCKLVPFIQKASVGITVLSLCALSIDRYRAVASWSRIKGIGVPKWTAVEIVLIWVVSVVLAVPEAIGFDIITMDYKGSYLRICLLHPVQKTAFMQFYKTAKDWWLFSFYFCLPLAITAFFYTLMTCEMLRKKSGMQIALNDHLKQRREVAKTVFCLVLVFALCWLPLHLSRILKLTLYNQNDPNRCELLSFLLVLDYIGINMASLNSCINPIALYLVSKRFKNAFKSALCCWAQS
notes: endothelin type B receptor (ETBR), human; C-terminus truncated at S407, followed by a 3C site and EGFP-His tag that was cleaved; Residues of the 3C sites probably remain after cleavage (GP before L66, LEVLFQ after S407); also called ETBR; ETB receptor; source: Sf9, purified (TALON, 3C cleavage, SEC) in LMNG/CHS with ET-1; not shown: Flag, N-terminal, cleaved; EGFP-His9, C-terminal, cleaved
binding result: binds

Source: article PMC11484851, “Structure of endothelin ETB receptor–Gi complex in a conformation stabilized by unique NPxxL motif” (Communications Biology, 2024)
